For assay [1], the target named is T1, Survivin120 K90/103T (Homo sapiens, UniProt O15392, K103T/K90T).
T1 construct: the only published NMR structure originated from a truncated Survivin (aa 1-120) with improved solubility; GST with PreScission site (N); made in house; host or cells: Escherichia coli soluBL21
Briefly: Fluorescence anisotropy binding of FAM-labeled tweezers to Survivin120 K90/103T. How it is done:
(§1) Fluorescence anisotropy was measured with a Jasco Spectrofluorometer FP-8300 in PBS buffer, pH 7.4, at 25 °C and data were collected with the software Spectra Manager™.
(§2) For binding studies, FAM-labeled molecular tweezers (200 nM) were titrated with Survivin120 wildtype or K90/103T mutant until a final concentration of 180 µM (wildtype) or 350 µM (K90/103T) was reached. Data were normalized to the measured anisotropy A0 in the absence of protein. Using a single-site binding model, the fluorescence anisotropy data were fitted to the equation:3 y=A⋅L+x+KD−L+x+KD^2−4⋅x⋅L/2⋅L where A is the anisotropy at saturation, L is the concentration of the fluorescent ligand, x is the concentration of protein titrated, and KD is the dissociation constant.

For assay [2], the target named is T2, Survivin120 wildtype (Homo sapiens, UniProt O15392).
T2 construct: the only published NMR structure originated from a truncated Survivin (aa 1-120) with improved solubility; GST with PreScission site (N); made in house; host or cells: Escherichia coli soluBL21
T2 sequence (O15392 1-120): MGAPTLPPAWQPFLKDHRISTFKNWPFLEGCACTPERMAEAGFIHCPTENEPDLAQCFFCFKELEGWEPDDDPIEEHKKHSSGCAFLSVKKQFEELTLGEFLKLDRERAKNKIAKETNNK
Briefly: Fluorescence anisotropy binding of FAM-labeled tweezers to Survivin120 wildtype. How it is done: as §1, §2

Assay [3] deals with TW-ELTL (asymmetrical molecular tweezer linked to the short peptide ELTL) (human). Briefly: ITC; tweezer conjugate (100 µM) in the cell, Survivin120 (1.2 mM WT or 2.5 mM K90/103T) in the syringe; PBS pH 7.4, 25 °C; one set of sites model.
Assay [4] addresses TW-ELTLGEFL (asymmetrical molecular tweezer linked to the elongated peptide ELTLGEFL) (human). The assay is described as above.
The target in assay [5] is TW-LFEEGLLT (scrambled peptide-modified tweezer). The description is as above.
Assay [6] deals with TW-ELTL-FAM (human). The assay can be described thus: fluorescence polarisation; fluorescence anisotropy; 200 nM FAM-labeled tweezer titrated with Survivin120 (to 180 µM) or K90/103T (to 350 µM); PBS pH 7.4, 25 °C; single-site model.
Assay [7] concerns the target TW-ELTLGEFL-FAM (human). The description is as above.
Assay [8] has as its target Atto488-labeled Survivin120 (human) (UniProt O15392). Briefly: fluorescence polarisation; fluorescence anisotropy competition; Atto488-Survivin120 preincubated with CRM1_1-1062VLV430AAA at 1:5, titrated with tweezers to approx. 180 µM; PBS pH 7.4, 25 °C; n = 1.
Assay [9] deals with Survivin142-HA (human) (UniProt O15392). The assay can be described thus: pull-down; competition in the pull-down of a5: 293T lysate with Survivin142-HA preincubated 1 h with 10 nM to 200 µM tweezer conjugate before GST-CRM1, RanQ69L and dGTP.
Survivin142-HA (human), sequence (O15392 whole entry): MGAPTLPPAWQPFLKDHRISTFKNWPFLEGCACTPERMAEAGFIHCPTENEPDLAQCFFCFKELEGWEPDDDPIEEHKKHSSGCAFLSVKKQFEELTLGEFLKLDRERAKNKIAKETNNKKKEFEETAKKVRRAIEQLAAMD

Peptide text beside a SMILES is read from it. * marks the point of attachment. X1 = O=C(Cn1cc(CCOP(=O)(O)Oc2c3c(c(OP(=O)(O)O)c4c2C2CC4c4cc5c(cc42)C2CC5c4ccccc42)C2CC3c3cc4c(cc32)C2CC4c3ccccc32)nn1)*; 5FAM = O=C1OC2(c3ccc(O)cc3Oc3cc(O)ccc32)c2ccc(C(=O)*)cc21

Atto488-labeled Survivin120 (human), sequence (O15392 1-120): as the sequence (O15392 1-120) above
T1 sequence (O15392 1-120 K90T/K103T): as the sequence (O15392 1-120) above, with K90T, K103T counted along it

`CC(C)C[C@H](NC(=O)[C@H](CCC(=O)O)NC(=O)Cn1cc(CCOP(=O)(O)Oc2c3c(c(OP(=O)(O)O)c4c2[C@H]2C[C@@H]4c4cc5c(cc42)[C@H]2C[C@@H]5c4ccccc42)[C@H]2C[C@@H]3c3cc4c(cc32)[C@H]2C[C@@H]4c3ccccc32)nn1)C(=O)N[C@H](C(=O)N[C@@H](CC(C)C)C(=O)N[C@@H](CCCCNC(=O)c1ccc2c(c1)C(=O)OC21c2ccc(O)cc2Oc2cc(O)ccc21)C(=O)NCC(=O)O)[C@@H](C)O` [TW-ELTL-FAM]: the results for the Kd in assay [1] and in assay [2] were 240 ± 20 µM and 26 ± 2 µM, respectively.

In the case of `CC(C)C[C@H](NC(=O)[C@H](Cc1ccccc1)NC(=O)[C@H](CCC(=O)O)NC(=O)CNC(=O)[C@H](CC(C)C)NC(=O)[C@@H](NC(=O)[C@H](CC(C)C)NC(=O)[C@H](CCC(=O)O)NC(=O)Cn1cc(CCOP(=O)(O)Oc2c3c(c(OP(=O)(O)O)c4c2C2CC4c4cc5c(cc42)C2CC5c4ccccc42)C2CC3c3cc4c(cc32)C2CC4c3ccccc32)nn1)[C@@H](C)O)C(=O)N[C@@H](CCCCNC(=O)c1ccc2c(c1)C(=O)OC21c2ccc(O)cc2Oc2cc(O)ccc21)C(=O)NCC(=O)O` [TW-ELTLGEFL-FAM] (X1-ELTLGEFLK(5FAM)G-OH), the Kd in assay [1] turned out to be 92 ± 5 µM; in assay [2], 5 ± 0.5 µM.

For “Survivin120 (truncated Survivin, aa 1-120) (from UniProt O15392 1-120) (domain or fragment)”, the dissociation constant Kd in [3] was determined as 24 µM; in [4], 19 µM; in [5] it was 68 µM; in assay [6], 26 µM; in assay [7] it was 5 µM. Moreover, the stoichiometry N (ligand/protein) in assay [3] and in [4] was 2 in each case.

In assay [8], “TW-ELTL (asymmetrical molecular tweezer linked to the short peptide ELTL)” returned a half-maximal inhibitory concentration (IC50) of 39 µM. In addition, in [9], the concentration required to disrupt the Survivin–CRM1 complex lay in the range of 10 to 50 µM.

As for “TW-ELTLGEFL (asymmetrical molecular tweezer linked to the elongated peptide ELTLGEFL)”, the IC50 in assay [8] is 12 µM. In assay [9], this compound returned a concentration effective in disrupting the Survivin–CRM1 complex of 1 to 10 µM.

These data come from publication PMC7940618, “Specific inhibition of the Survivin–CRM1 interaction by peptide-modified molecular tweezers” (Nature Communications, 2021).
